According to the Human Domainome abundance scans (Beltran et al. 2025):

B1: Far upstream element-binding protein 2, residues 142 to 214; numbered along this chain, Q92945 (parent)
chain: RTSMTEEYRVPDGMVGLIIGRGGEQINKIQQDSGCKVQISPDSGGLPERSVSLTGAPESVQKAKMMLDDIVSR

Variants of: B1
Experiment: abundance fitness (aPCA) (normalised: wild type 0, dead -1); higher = more abundant; growth selection in yeast, the domain comes from the species named
Conditions: Homo sapiens

Abundance fitness, by site and new letter:
Q25: F -0.181 | S -0.067 | M -0.127 | V -0.019 | Y -0.06 | H -0.256 | L -0.039 | P -0.264 | W -0.17 | G 0.005 | C -0.099 | T 0.022 | K -0.158 | A -0.004 | E 0.004 | I -0.015
G23: V -0.257 | C -0.212 | D -0.187 | M -0.141 | P -0.314 | Y -0.393 | T -0.27 | Q -0.126 | A -0.149 | K -0.177 | W -0.32 | R -0.11 | N -0.241 | S -0.178 | L -0.169 | F -0.3
R21: T -0.004 | F -0.146 | E 0.088 | M -0.002 | Y -0.148 | C -0.012 | I -0.191 | W -0.353 | K 0.056 | V -0.068 | L 0.042 | S 0.02 | D 0.133 | P 0.008 | N 0.074 | Q -0.015 | G -0.043 | A 0.026
G16: T -0.101 | C -0.334 | N -0.093 | R -0.078 | V -0.619 | Q -0.034 | P -0.015 | A -0.037 | E 0.049 | L -0.495 | W -0.229 | S -0.076 | K -0.068 | H -0.019 | D 0.136 | I -0.994 | F -0.499
V15: R -0.335 | Y -0.197 | M 0.035 | I -0.06 | N -0.376 | D -0.217 | K -0.251 | E -0.03 | W -0.081 | C -0.22 | A -0.053 | T -0.227 | G -0.282 | H -0.214 | L 0.068 | S -0.219 | F -0.076 | P -0.462 | Q -0.272
M14: P -0.898 | H -0.235 | I -0.003 | F -0.349 | S -0.219 | W -0.319 | D -0.209 | K -0.017 | N -0.148 | L -0.048 | E -0.208 | G -0.361 | Y -0.19 | A -0.111 | V -0.094 | R -0.314 | Q -0.243 | T -0.21
P11: H -0.536 | F -1.07 | V -0.425 | L -0.362 | R -0.299 | Y -0.712 | A -0.131 | M -0.375 | K -0.178 | T -0.158 | Q -0.221 | G -0.472 | W -0.765 | D -0.122 | I -0.277 | E -0.193 | N -0.371
I18: D -0.312 | N -0.345 | T -0.282 | H -0.51 | S -0.398 | L 0.035 | A -0.276 | P -0.324 | C -0.595 | E -0.287 | W -0.562 | F -0.122 | K -0.333 | M -0.17 | Y -0.494 | Q -0.346 | G -0.363 | V -0.158
G22: P -0.572 | V -0.312 | C -0.204 | S -0.148 | Q -0.026 | K -0.12 | H -0.234 | R -0.032 | W -0.308 | N -0.167 | T -0.192 | D -0.027 | I -0.34 | E -0.071 | M -0.115 | Y -0.226 | A -0.126 | L -0.234
I26: F -0.492 | E -0.685 | Y -0.769 | C -0.524 | M -0.054 | N -0.852 | R -0.533 | G -0.641 | Q -0.35 | S -0.693 | T -0.451 | H -0.485 | W -0.215 | A -0.394 | D -0.549 | P -0.639 | K -0.352 | V -0.146
V10: Y -0.224 | W -0.726 | K -0.603 | F -0.132 | I -0.02 | M 0.041 | N -0.567 | L 0.068 | Q -0.709 | R -0.741 | T -0.464 | S -0.628 | P -0.456
G20: T -0.59 | C -1.28 | F -1.01 | Q -0.4 | H -0.576 | L -1.07 | W -0.96 | S -0.298 | R -0.428 | N -0.389 | D -0.086 | P -0.576 | K -0.401 | I -1.09 | V -1.38 | M -0.805
K28: Y -0.337 | H -0.162 | W -0.51 | E -0.243 | G -0.507 | D -0.431 | P -0.751 | L -0.239 | R 0.002 | F -0.4 | I -0.269 | V -0.419 | M -0.085 | C -0.597 | T -0.209 | A -0.144 | N -0.256
D12: W -0.524 | P 0.051 | Q -0.039 | N -0.14 | V -0.097 | C -0.175 | F -0.153 | K -0.032 | G -0.04 | H 0.013 | I 0.041 | R 0.088 | T 0.105 | Y -0.204 | S 0.054 | E -0.003
I29: R -0.995 | H -0.984 | E -0.736 | A -0.811 | S -0.819 | N -0.869 | K -0.787 | G -0.856 | Q -0.841 | P -0.849 | F -0.682 | M -0.524
N27: R 0.017 | L -0.076 | Q -0.018 | I -0.109 | M -0.085 | E -0.006 | W -0.209 | S -0.054 | P -0.476 | F -0.081 | T 0.007 | A -0.095 | H -0.094 | K 0.013 | D -0.029 | G -0.137
G13: E 0.12 | M -0.052 | P -0.124 | F -0.184 | T 0.035 | K 0.066 | C -0.127 | D 0.134 | Y -0.005 | N 0.18 | S 0.122 | R 0.07 | L -0.174 | Q 0.09 | A -0.072 | I -0.039 | V -0.389 | W -0.097
I19: V -0.016 | Y 0.005 | H -0.17 | G -0.146 | P -0.35 | E -0.103 | C -0.114 | K -0.01 | D -0.179 | L 0.008 | F -0.098 | Q -0.105 | M 0.096 | R -0.091 | W -0.144 | N -0.029 | A -0.096
E24: S -0.076 | R -0.03 | I -0.251 | F -0.03 | L -0.199 | N -0.106 | Y 0.05 | T -0.071 | D -0.104 | W 0.666 | H -0.019 | A -0.112 | G -0.215 | P -0.797 | M -0.059 | K -0.078 | V -0.092
L17: G -0.023 | C -0.118 | A 0.016 | W -0.111 | P -0.199 | V -0.113 | D 0.061 | T 0.045 | E 0.074 | Q -0.028 | H -0.087 | S -0.021 | F -0.072 | I -0.045 | N -0.119 | K -0.059 | Y -0.147
